# Columns and labels:
# [1] = biological target: SaTRIC, prokaryotic TRIC homologue from the archaeon Sulfolobus acidocaldarius, wild type (Sulfolobus acidocaldarius); experiment: cross-linking; purified protein in DDM (around 1 mg/ml in 30 ul) with glutaraldehyde (0, 0.00005%, 0.0001%, 0.0005%, 0.001%) at room temperature for 8 h; quenched with 50 mM Tris-Cl pH 8.0; 12% SDS-PAGE
# [2] = biological target: SaTRIC, prokaryotic TRIC homologue from the archaeon Sulfolobus acidocaldarius, wild type (Sulfolobus acidocaldarius); experiment: crystal structure; SaTRIC purified in DM, crystallised in lipid cubic phase (monoolein); lattices P6(3), P321 and R32, one molecule per asymmetric unit, trimer about the crystallographic three-fold axis
# [3] = biological target: SaTRIC, prokaryotic TRIC homologue from the archaeon Sulfolobus acidocaldarius, wild type (Sulfolobus acidocaldarius); experiment: SEC-MALS; analytical size-exclusion chromatography in detergent-containing mobile phases; multi-angle light scattering with refractive index detection used to analyse the oligomeric state
# [4] = biological target: Se-Met SaTRIC mutant (L148M) (Sulfolobus acidocaldarius); experiment: crystal structure; SaTRIC purified in DM, crystallised in lipid cubic phase (monoolein); lattices P6(3), P321 and R32, one molecule per asymmetric unit, trimer about the crystallographic three-fold axis
# [5] = biological target: CpTRIC, prokaryotic TRIC homologue from the bacterium Colwellia psychrerythraea (Colwellia psychrerythraea 34H); experiment: cross-linking; purified protein in DDM (around 1 mg/ml in 30 ul) with glutaraldehyde (0, 0.00005%, 0.0001%, 0.0005%, 0.001%) at room temperature for 8 h; quenched with 50 mM Tris-Cl pH 8.0; 12% SDS-PAGE
# [6] = biological target: CpTRIC, prokaryotic TRIC homologue from the bacterium Colwellia psychrerythraea (Colwellia psychrerythraea 34H); experiment: SEC-MALS; analytical size-exclusion chromatography in detergent-containing mobile phases; multi-angle light scattering with refractive index detection used to analyse the oligomeric state
# [7] = biological target: Se-Met CpTRIC (Colwellia psychrerythraea 34H); experiment: crystal structure; Se-Met CpTRIC in octylmaltoside, crystallised from detergent micelles (38% PEG400, 0.1 M NaCl, 0.1 M CdCl2, 0.1 M Tris-HCl pH 8.5); space group R32, one protomer per asymmetric unit
substance,measurement,setting,value
"SaTRIC, prokaryotic TRIC homologue from the archaeon Sulfolobus acidocaldarius, wild type (natural protein)",stoichiometry N,[1],3
same,stoichiometry N,[2],3
same,stoichiometry N,[3],3
Se-Met SaTRIC mutant (L148M) (natural protein),stoichiometry N,[4],3
"CpTRIC, prokaryotic TRIC homologue from the bacterium Colwellia psychrerythraea (natural protein)",stoichiometry N,[5],3
same,stoichiometry N,[6],3
Se-Met CpTRIC (natural protein),stoichiometry N,[7],3

# Reference: article PMC5477506
